The text below walks through data of article PMC9117480.

Assay [1] has as its target GST mutant encoding FSY at position-52 (Schistosoma japonicum (printed only as SjGST)). As to the kind of experiment: cross-linking.
Assay [2] addresses GST mutant encoding FPheK at position-52 (Schistosoma japonicum (printed only as SjGST)). In words: cross-linking.

One may read the stoichiometry N as the number of molecules, sites or subunits per partner or assembly. In assay [1], “GST mutant encoding FSY at position-52 (enzyme)” displayed a stoichiometry N of 2.
In the case of “GST mutant encoding FPheK at position-52 (enzyme)”, the stoichiometry N in assay [2] was 2.
